Laboratory results: patent US20200129532

Biological target: T1, HA-tagged VDR (vitamin D receptor), wild type (UniProt P11473)
T1 sequence: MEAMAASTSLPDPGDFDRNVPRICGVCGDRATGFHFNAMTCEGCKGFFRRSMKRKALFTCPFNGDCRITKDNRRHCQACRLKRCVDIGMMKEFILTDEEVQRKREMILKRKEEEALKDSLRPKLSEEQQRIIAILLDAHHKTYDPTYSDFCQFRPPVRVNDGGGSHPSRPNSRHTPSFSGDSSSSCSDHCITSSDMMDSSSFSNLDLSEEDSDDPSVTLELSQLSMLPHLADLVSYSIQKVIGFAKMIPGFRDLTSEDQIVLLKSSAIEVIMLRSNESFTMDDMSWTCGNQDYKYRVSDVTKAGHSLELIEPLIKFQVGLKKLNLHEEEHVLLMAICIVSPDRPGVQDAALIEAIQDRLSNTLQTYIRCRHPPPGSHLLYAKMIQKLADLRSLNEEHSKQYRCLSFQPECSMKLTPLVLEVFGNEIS

## enzymatically dead PCAF (D608A)
  VDR acetylation: but not with the enzymatically dead PCAF D608A mutant
